Reference: paper PMC4740876

Legend:
[1] = target: unmodified mononucleosome; experiment: SEC-MALS; mononucleosomes (300 pmol) with the catalytic domain of hDot1L (8.5 nmol) in 25 mM Tris-HCl, 150 mM NaCl, pH 7.8, 4 °C 30 min; Superdex 200 10/300
[2] = target: mononucleosome containing H2B-Ub (ubiquitin on Lys120 of H2B by a stable isopeptide linkage) (UniProt P62807); experiment: as above

stoichiometry N (hDot1L per mononucleosome) [1]: 1 | stoichiometry N (hDot1L per mononucleosome) [2]: 2
Substance: cysteine-less catalytic domain of hDot1L, hDot1L(1–416)C44S/C74S/C178S (from UniProt Q8TEK3 2-417) (enzyme)
